Source: article PMC5749160, “Disruption of an RNA-binding hinge region abolishes LHP1-mediated epigenetic repression”
Numbering of substitutions follows the chain as printed.

Experiments:
Settings in all cases: protein: recombinant; tags: N-terminal GST (pGEX-4T-1); label: 5' Cy5; single-stranded
GST-LHP1 KR33A = target: T1, GST-LHP1 KR33A (Arabidopsis thaliana (Col-0 cDNA), UniProt Q946J8 1-445, R166A;K167A;R168A;K169A;R170A;K171A;K180A;K181A;K182A;R184A;K195A;R224A;K229A;R2 …); experiment: EMSA; EMSA: 20 mM HEPES-KOH pH 7.5, 100 mM KCl, 0.05% NP-40, 10 nM Cy5 probe (1 uL of 100 nM + 9 uL protein), 30 min room temperature; 1.6% TBE-agarose gel
T1 sequence: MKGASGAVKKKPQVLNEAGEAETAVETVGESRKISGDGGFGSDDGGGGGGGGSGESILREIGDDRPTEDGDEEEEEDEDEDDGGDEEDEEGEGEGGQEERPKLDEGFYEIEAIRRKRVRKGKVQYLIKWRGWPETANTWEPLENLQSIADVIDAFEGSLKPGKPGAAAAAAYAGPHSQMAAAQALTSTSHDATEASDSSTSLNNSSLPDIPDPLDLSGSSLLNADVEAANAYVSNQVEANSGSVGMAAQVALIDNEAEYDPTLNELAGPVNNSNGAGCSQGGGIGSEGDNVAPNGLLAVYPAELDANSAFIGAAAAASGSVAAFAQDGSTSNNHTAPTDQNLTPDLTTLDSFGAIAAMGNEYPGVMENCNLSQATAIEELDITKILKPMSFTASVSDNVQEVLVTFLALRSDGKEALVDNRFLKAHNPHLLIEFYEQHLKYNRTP

GST-LHP1 KR23A = target: T2, GST-LHP1 KR23A (Arabidopsis thaliana (Col-0 cDNA), UniProt Q946J8 1-445, R166A;K167A;R168A;K169A;R170A;K171A;K180A;K181A;K182A;R184A;K195A;R292A;K298A;K3 …); experiment: as above
T2 sequence: T1 sequence with A224R, A229K, A248R, A251R, A257K, A267R, A354R, A357R, A374K, A376K

GST-LHP1 W129C = target: T3, GST-LHP1 W129C (Arabidopsis thaliana (Col-0 cDNA), UniProt Q946J8 1-445, W129C); experiment: EMSA; wild-type RNA-binding activity retained; EMSA: 20 mM HEPES-KOH pH 7.5, 100 mM KCl, 0.05% NP-40, 10 nM Cy5 probe (1 uL of 100 nM + 9 uL protein), 30 min room temperature; 1.6% TBE-agarose gel
T3 sequence: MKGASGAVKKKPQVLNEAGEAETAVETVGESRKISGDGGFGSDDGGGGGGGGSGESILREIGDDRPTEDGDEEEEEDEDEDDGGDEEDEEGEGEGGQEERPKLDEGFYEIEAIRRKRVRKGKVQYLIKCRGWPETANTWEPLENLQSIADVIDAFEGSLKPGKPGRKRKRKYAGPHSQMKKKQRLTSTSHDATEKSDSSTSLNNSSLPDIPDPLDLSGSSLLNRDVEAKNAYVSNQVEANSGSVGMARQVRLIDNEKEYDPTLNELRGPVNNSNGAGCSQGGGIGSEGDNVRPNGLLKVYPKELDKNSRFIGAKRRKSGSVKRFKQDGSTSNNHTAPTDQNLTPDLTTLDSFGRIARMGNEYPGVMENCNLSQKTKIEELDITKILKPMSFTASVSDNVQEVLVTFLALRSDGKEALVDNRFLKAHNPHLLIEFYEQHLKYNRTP

Binder: CUCCUCCGGCGAUAAGUACGCCUUUUCCUUACCUGGGUUU (ssRNA) [FLC 40-nt ssRNA]
- binding result (GST-LHP1 KR33A): no binding
- binding result (GST-LHP1 KR23A): no binding
- binding result (GST-LHP1 W129C): binds
